From US9504755B2, “Multi-arm polymeric alkanoate conjugates” (Nektar Therapeutics, priority 2008, dated 2016)
Where “and” joins values, the source holds several entries; their conditions need not be identical. Identical values can stand only once. Marks after values point to notes of the source that are not given here.

Key:
Assay type in all cases: in vivo
LS174T tumors = assay: Anti-tumor activity in LS174T colorectal mouse xenograft model
Description: (§1) H460, LS174T and LoVo tumors were established in female athymic nude mice. Groups of 10 mice received a total of three single doses of 4-ARM-PEG20K-BA-DOC or docetaxel administered every 7 days (q7d×3) at several doses up to a maximum tolerated dose (MTD). Control groups received no treatment after tumor implant. Animals were weighed daily for the first five days and twice weekly thereafter. Tumor volumes were measured twice weekly after the first drug injection.
(§2) Anti-tumor activity was measured as changes in tumor volume, time to reach endpoint, and complete or partial tumor regression.
(§3) Treatment outcome was evaluated by Tumor Growth Delay (TGD), which is defined as the increase in median time to endpoint in a treatment group compared to the control group. Here it is expressed as % TGD, as a percentage to the median time to endpoint of the control group.
(§4) A tumor whose volume was reduced to 50% or less for three consecutive measurements compared to its volume on Day 1 was considered to be in partial regression. Complete regression was defined as volume […] 13.5 mm^3 for three consecutive measurements.
(§5) Acceptable toxicity was defined as a group mean body weight (BW) loss of less than 20% during the study and not more than one treatment-related death among ten treated animals.

LoVo tumors = assay: Anti-tumor activity in LoVo colorectal mouse xenograft model
Description: as §1, §2, §3, §4, §5

[1] = Population pharmacokinetic modeling of terminal disposition rate constant, dogs; settings: dog
Source text: To further evaluate the sustained plasma docetaxel terminal half-life, a population pharmacokinetic approach was employed.
While determining the pharmacokinetics of docetaxel after administration of docetaxel or 4-ARM-PEG20K-BA-docetaxel, it was observed that reliable values for the terminal disposition rate constant λz could not be obtained for the majority of animals secondary to fluctuation of plasma docetaxel concentrations between adjacent sampling times and/or the occurrence of incomplete concentration-time profiles due to concentrations being near or at the lower limit of quantification (1 ng/mL). In addition, in Example 14, rats were sampled in groups of 15 using alternating, overlapping sparse sampling schemes across groups to encompass the total duration of sampling. All of these factors contributed to the occurrence of sparse data within a given animal's terminal concentration-time profile.
To further investigate and compare docetaxel terminal disposition patterns between docetaxel and 4-ARM-PEG20K-BA-docetaxel, population pharmacokinetic methods were applied to data from rats (Example 14) and dogs (Example 15 and in one additional study). This allowed estimation of population λz values and corresponding half-life values for each treatment group in the presence of incomplete data within individual animals. Specifically, data from all animals within a treatment group and all treatment groups were fit with a nonlinear mixed effect pharmacokinetic model using the program Monolix. Plasma docetaxel concentrations following docetaxel or 4-ARM-PEG20K-BA-docetaxel administration, and plasma 4-ARM-PEG20K-BA-docetaxel concentrations following 4-ARM-PEG20K-BA-docetaxel administration were fit with a model specifying zero-order input of the dose over a defined infusion period and biexponential disposition (Monolix PK Model 26). Docetaxel concentration-time data after 4-ARM-PEG20K-BA-docetaxel were fit with a model having first order input, to reflect metabolism of 4-ARM-PEG20K-BA-docetaxel to the active docetaxel metabolite, and biexponential disposition (Monolix PK Model 31). The parameter of interest for this investigation was the population terminal disposition rate constant, λz to supplement the results described above.
Dogs in the additional study received 7 mg/kg doses of 4-ARM-PEG20K-BA-docetaxel on Days 1 and 22 with serial blood sampling after each dose for determination of plasma 4-ARM-PEG20K-BA-docetaxel and docetaxel concentrations.

H460 tumors = assay: Anti-tumor activity in H460 non-small cell lung mouse xenograft model
Description: as §1, §2, §3, §4, §5

[2] = 16.9 mg/kg (50.7 mg/m^2), q7d×3
[3] = 22.5 mg/kg (67.5 mg/m^2), q7d×3
[4] = 30 mg/kg (90 mg/m^2), q7d×3 (MTD of docetaxel)
[5] = 40 mg/kg (120 mg/m^2), q7d×3 (MTD of 4-ARM-PEG20K-BA-DOC)
[6] = 40 mg/kg (120 mg/m^2), q7d×3 (exceeded MTD)
[7] = additional study, conjugate 7 mg/kg on Days 1 and 22
[8] = docetaxel 0.75 mg/kg or conjugate 0.72, 2, 4 mg/kg
[9] = 18.7 mg/kg (56.1 mg/m^2), q7d×3
[10] = 25 mg/kg (75 mg/m^2), q7d×3 (MTD of docetaxel)
[11] = 33.3 mg/kg (99.9 mg/m^2), q7d×3

Substance: 4-ARM-PEG20K-Butanoate-Linked Docetaxel Conjugate [4-ARM-PEG20K-BA-DOC]
- BW Loss (%) (LS174T tumors; [2]): 12.4%
- Day of BW Nadir (LS174T tumors; [2]): 23
- No. Surviving/No. Treated Mice (LS174T tumors; [2]): 9/10
- PR (partial regressions) (LS174T tumors; [2]): 0
- TGD (%) (LS174T tumors; [2]): 126* %
- BW Loss (%) (LS174T tumors; [3]): 11.1%
- Day of BW Nadir (LS174T tumors; [3]): 23
- No. Surviving/No. Treated Mice (LS174T tumors; [3]): 10/10
- PR (partial regressions) (LS174T tumors; [3]): 0
- TGD (%) (LS174T tumors; [3]): 169* %
- Day of BW Nadir (LS174T tumors; 30 mg/kg (90 mg/m^2), q7d×3): 23
- No. Surviving/No. Treated Mice (LS174T tumors; 30 mg/kg (90 mg/m^2), q7d×3): 9/10
- BW Loss (%) (LS174T tumors; [4]): 17.9%
- TGD (%) (LS174T tumors; [4]): 250%
- Day of BW Nadir (LS174T tumors; 40 mg/kg (120 mg/m^2), q7d×3): 23
- No. Surviving/No. Treated Mice (LS174T tumors; 40 mg/kg (120 mg/m^2), q7d×3): 10/10
- BW Loss (%) (LS174T tumors; [5]): 18.8%
- TGD (%) (LS174T tumors; [5]): 266%
- % TGD fold greater than for docetaxel (LS174T tumors; each at MTD): 1.6 fold
- BW Loss (%) (LoVo tumors; [2]): 7.0%
- Day of BW Nadir (LoVo tumors; [2]): 21
- No. Surviving/No. Treated Mice (LoVo tumors; [2]): 10/10
- PR (partial regressions) (LoVo tumors; [2]): 0
- TGD (%) (LoVo tumors; [2]): 64** %
- BW Loss (%) (LoVo tumors; [3]): 11.0%
- Day of BW Nadir (LoVo tumors; [3]): 24
- No. Surviving/No. Treated Mice (LoVo tumors; [3]): 10/10
- PR (partial regressions) (LoVo tumors; [3]): 0
- TGD (%) (LoVo tumors; [3]): 50* %
- BW Loss (%) (LoVo tumors; 30 mg/kg (90 mg/m^2), q7d×3): 16.2%
- Day of BW Nadir (LoVo tumors; 30 mg/kg (90 mg/m^2), q7d×3): 24
- No. Surviving/No. Treated Mice (LoVo tumors; 30 mg/kg (90 mg/m^2), q7d×3): 10/10
- PR (partial regressions) (LoVo tumors; 30 mg/kg (90 mg/m^2), q7d×3): 0
- TGD (%) (LoVo tumors; 30 mg/kg (90 mg/m^2), q7d×3 (MTD for both agents)): 128%
- Day of BW Nadir (LoVo tumors; 40 mg/kg (120 mg/m^2), q7d×3): 24
- No. Surviving/No. Treated Mice (LoVo tumors; 40 mg/kg (120 mg/m^2), q7d×3): 10/10
- BW Loss (%) (LoVo tumors; [6]): 22.6%
- TGD (%) (LoVo tumors; [6]): 148% and 148 ^1%
- plasma docetaxel half-life, fold longer than after docetaxel [1]: about 8 fold
- Mean (SE) λz, plasma conjugate [1, 7]: 0.0141 (0.00041) h^−1
- Mean (SE) λz, plasma docetaxel [1, 7]: 0.00627 (0.00086) hr^−1
- t½λz, plasma docetaxel [1, 7]: 110 h
- Mean (SE) λz, plasma docetaxel [1, 8]: 0.00349 (0.0021) hr^−1
- t½λz, plasma docetaxel [1, 8]: 199 h
- BW Loss (%) (H460 tumors; 14 mg/kg (42 mg/m^2), q7d×3): 0/0%
- No. Surviving/No. Treated Mice (H460 tumors; 14 mg/kg (42 mg/m^2), q7d×3): 10/10
- TGD (%) (H460 tumors; 14 mg/kg (42 mg/m^2), q7d×3): −1%
- BW Loss (%) (H460 tumors; [9]): 6.2%
- Day of BW Nadir (H460 tumors; [9]): 22
- No. Surviving/No. Treated Mice (H460 tumors; [9]): 10/10
- TGD (%) (H460 tumors; [9]): 56* %
- Tumor growth delay (%) (H460 tumors; 19 mg/kg (58% MTD), q7d×3): 56%
- Day of BW Nadir (H460 tumors; 25 mg/kg (75 mg/m^2), q7d×3): 29
- No. Surviving/No. Treated Mice (H460 tumors; 25 mg/kg (75 mg/m^2), q7d×3): 10/10
- BW Loss (%) (H460 tumors; [10]): 10.4%
- TGD (%) (H460 tumors; [10]): 72** %
- Decrease in body weight (H460 tumors; 33 mg/kg (MTD)): 14.2%
- Tumor growth delay (%) (H460 tumors; 33 mg/kg (MTD), q7d×3): 122%
- BW Loss (%) (H460 tumors; [11]): 14.2%
- Day of BW Nadir (H460 tumors; [11]): 22
- No. Surviving/No. Treated Mice (H460 tumors; [11]): 10/10
- TGD (%) (H460 tumors; [11]): 122** %
- antitumor activity below MTD (H460 tumors; 4-ARM-PEG20K-BA-DOC at 19 mg/kg (58% of its MTD), docetaxel doses less than 25 mg/kg): retained significant antitumor activity
- % TGD fold greater than for docetaxel (H460 tumors; each at MTD): 2.5 fold
